{
  "source": "paper PMC7261193",
  "about": "“The ancillary N-terminal region of the yeast AP-1 transcription factor Yap8 contributes to its DNA binding specificity”",
  "binders": {"B1": {"name": "ACR3-WT (FAM) (dsDNA)", "DNA 1": "CTTTTTGTTTGATTAATAATCAACTTTAGCG", "DNA 2": "CGCTAAAGTTGATTATTAATCAAACAAAAAG"}},
  "conditions_in_all_cases": "protein: recombinant; tags: GST (N-term); chain copies: 2; label: 5' FAM; blunt",
  "key": {"[1]": {"molecular_target": "T1, GST-Yap8-N20A (Saccharomyces cerevisiae, UniProt Q06596 1-294, N20A)", "T1 sequence": "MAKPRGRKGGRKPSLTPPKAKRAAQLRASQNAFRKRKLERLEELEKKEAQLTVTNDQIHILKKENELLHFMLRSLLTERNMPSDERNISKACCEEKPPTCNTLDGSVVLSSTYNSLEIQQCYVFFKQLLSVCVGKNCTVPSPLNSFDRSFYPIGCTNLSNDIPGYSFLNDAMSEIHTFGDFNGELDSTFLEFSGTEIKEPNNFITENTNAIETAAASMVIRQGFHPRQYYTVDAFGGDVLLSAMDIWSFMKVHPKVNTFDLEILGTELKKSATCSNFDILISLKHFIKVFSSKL", "assay": "fluorescence anisotropy; series a; FA: 10 mM Tris-HCl pH 8, 50 mM NaCl, 0.5% NP-40, 1 mM DTT, 5% glycerol, 1 nM DNA, 25C (half volume protein elution buffer). Biotin EMSA: LightShift 1x buffer, 50 ng poly(dI-dC), 2.5% glycerol, 0.05% NP-40, 5 mM MgCl2, 20 fmol probe, RT 20 min. 32P EMSA: 10 mM Tris-HCl pH 8.0, 50 mM NaCl, 1 mM DTT, 0.05% NP-40, 100 ng poly(dI-dC), 6% glycerol, 4C 30 min"}, "[2]": {"molecular_target": "T2, GST-Yap8 WT (Saccharomyces cerevisiae, UniProt Q06596 1-294)", "T2 sequence": "T1 sequence with A20N", "assay": "fluorescence anisotropy; series a; FA: 10 mM Tris-HCl pH 8, 50 mM NaCl, 0.5% NP-40, 1 mM DTT, 5% glycerol, 1 nM DNA, 25C (half volume protein elution buffer). Biotin EMSA: LightShift 1x buffer, 50 ng poly(dI-dC), 2.5% glycerol, 0.05% NP-40, 5 mM MgCl2, 20 fmol probe, RT 20 min. 32P EMSA: 10 mM Tris-HCl pH 8.0, 50 mM NaCl, 1 mM DTT, 0.05% NP-40, 100 ng poly(dI-dC), 6% glycerol, 4C 30 min"}, "[3]": {"molecular_target": "T3, GST-Yap8-R7A (Saccharomyces cerevisiae, UniProt Q06596 1-294, R7A)", "T3 sequence": "T1 sequence with R7A, A20N", "assay": "fluorescence anisotropy; series b; FA: 10 mM Tris-HCl pH 8, 50 mM NaCl, 0.5% NP-40, 1 mM DTT, 5% glycerol, 1 nM DNA, 25C (half volume protein elution buffer). Biotin EMSA: LightShift 1x buffer, 50 ng poly(dI-dC), 2.5% glycerol, 0.05% NP-40, 5 mM MgCl2, 20 fmol probe, RT 20 min. 32P EMSA: 10 mM Tris-HCl pH 8.0, 50 mM NaCl, 1 mM DTT, 0.05% NP-40, 100 ng poly(dI-dC), 6% glycerol, 4C 30 min"}, "[4]": {"molecular_target": "T2, GST-Yap8 WT", "assay": "fluorescence anisotropy; series b; FA: 10 mM Tris-HCl pH 8, 50 mM NaCl, 0.5% NP-40, 1 mM DTT, 5% glycerol, 1 nM DNA, 25C (half volume protein elution buffer). Biotin EMSA: LightShift 1x buffer, 50 ng poly(dI-dC), 2.5% glycerol, 0.05% NP-40, 5 mM MgCl2, 20 fmol probe, RT 20 min. 32P EMSA: 10 mM Tris-HCl pH 8.0, 50 mM NaCl, 1 mM DTT, 0.05% NP-40, 100 ng poly(dI-dC), 6% glycerol, 4C 30 min"}, "[5]": {"molecular_target": "T4, GST-Yap8-R11A (Saccharomyces cerevisiae, UniProt Q06596 1-294, R11A)", "T4 sequence": "T1 sequence with R11A, A20N", "assay": "fluorescence anisotropy; series b; FA: 10 mM Tris-HCl pH 8, 50 mM NaCl, 0.5% NP-40, 1 mM DTT, 5% glycerol, 1 nM DNA, 25C (half volume protein elution buffer). Biotin EMSA: LightShift 1x buffer, 50 ng poly(dI-dC), 2.5% glycerol, 0.05% NP-40, 5 mM MgCl2, 20 fmol probe, RT 20 min. 32P EMSA: 10 mM Tris-HCl pH 8.0, 50 mM NaCl, 1 mM DTT, 0.05% NP-40, 100 ng poly(dI-dC), 6% glycerol, 4C 30 min"}, "[6]": {"molecular_target": "T2, GST-Yap8 WT", "assay": "fluorescence anisotropy; series c; FA: 10 mM Tris-HCl pH 8, 50 mM NaCl, 0.5% NP-40, 1 mM DTT, 5% glycerol, 1 nM DNA, 25C (half volume protein elution buffer). Biotin EMSA: LightShift 1x buffer, 50 ng poly(dI-dC), 2.5% glycerol, 0.05% NP-40, 5 mM MgCl2, 20 fmol probe, RT 20 min. 32P EMSA: 10 mM Tris-HCl pH 8.0, 50 mM NaCl, 1 mM DTT, 0.05% NP-40, 100 ng poly(dI-dC), 6% glycerol, 4C 30 min"}},
  "note": "Where a chain is given by its changes, count along the chain named.",
  "data": [
    {"binder": "B1", "values": [
      {"measurement": "Kd", "setting": "[1]", "value": "0.0255 ± 0.0043", "unit": "µM"},
      {"measurement": "Kd", "setting": "[2]", "value": "0.0099 ± 0.0014", "unit": "µM"},
      {"measurement": "Kd", "setting": "[3]", "value": "0.0134 ± 0.0017", "unit": "µM"},
      {"measurement": "Kd", "setting": "[4]", "value": "0.0108 ± 0.0017", "unit": "µM"},
      {"measurement": "Kd", "setting": "[5]", "value": "0.0189 ± 0.0029", "unit": "µM"},
      {"measurement": "Kd", "setting": "[6]", "value": "0.0108 ± 0.0035", "unit": "µM"}
    ]}
  ]
}
